This test concerns the target T1, recombinant human PD-1-Fc (GenScript) (human, UniProt Q15116 25-167, limits assumed).
T1 construct: Bought reagent (GenScript); not shown: Fc part of the bought fusion
Kind of test: sandwich ELISA; PD-1-Fc coated (200 ng/mL), purified trap protein 0-40 µg/mL, anti-His-tag-HRP detection. The procedure: FIG. 2A-2E depict characterization of trap protein. […] (2D and 2E) Binding ability of trap to PD-1 and TGF-β using sandwich ELISA, wherein purified trap protein was added to PD-1-Fc-coated or TGF-β-coated plates, followed by detection by anti-His-tag antibody conjugated with HRP.
The binding ability of trap protein to PD-1 and TGFβ protein was evaluated by sandwich ELISA, wherein recombinant human PD-1-Fc (GenScript) or […] protein (R&D Systems) (200 ng/mL) was coated on the plates, followed by purified trap protein (0-40 μg/mL) detected by anti-6×HIS TAG® antibody-HRP (1:500 diluted, Abcam).
For orientation: An ELISA detects its analyte on a solid surface through an enzyme-linked reagent.

T1 sequence (Q15116 25-167 limits assumed): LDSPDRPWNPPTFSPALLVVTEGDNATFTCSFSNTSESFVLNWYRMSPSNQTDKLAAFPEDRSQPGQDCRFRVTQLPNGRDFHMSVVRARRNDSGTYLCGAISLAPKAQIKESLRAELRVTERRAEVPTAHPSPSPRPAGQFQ

B1: trap protein labeled with a His-tag (anti-PD-1 scFv fused to a TGF-β-binding sequence of TGF-βRII, produced in transfected 293T cells) (other, not shown: small tags and cut ends)
chain: DIVLTQSPATLSLSPGERATLSCRASKSVSTSGFNYMHWYQQKPGQAPRLLIFLASNLASGVPARFSGSGSGTDFTLTISSLEPEDFAVYYCQHGRELPLTFGQGTKLEIGGGGSGGGGSGGGGSQVQLVQSGAEVKKPGASVKVSCKASGYTFTNYYMYWVRQAPGQGLEWIGGINPSNGGTNFNEKFKNKATMTVDKSTSTAYMELSSLRSEDTAVYYCTRRDYNYDGGFDYWGQGTLVTVSSGGGGSGGGGSTIPPHVQKSVNNDMIVTDNNGAVKFPQLCKFCDVRFSTCDNQKSCMSNCSITSICEKPQEVCVAVWRKNDENITLETVCHDPKLPYHDFILEDAASPKCIMKEKKKPGETFFMCSCSSDECNDNIIFSEEYNTSNPD
notes: Western blot gives 56 kDa; The text says the scFv derives from antibody 5C4; also called bifunctional trap protein; purified trap protein
In the case of B1, the binding result is reported as “binds”.

Source of the values: patent US20230310601A1 (UNIVERSITY OF SOUTHERN CALIFORNIA, published 2023).
